We go through 2 molecules from patent US20160030595A1 (THOMAS JEFFERSON UNIVERSITY, published 2016).

The target in the assay is T1, human guanylyl cyclase C (GCC) (human, UniProt P25092 24-430, limits assumed).
T1 construct: also called human GCC; STAR
Put plainly: not described.

T1 sequence (P25092 24-430 limits assumed): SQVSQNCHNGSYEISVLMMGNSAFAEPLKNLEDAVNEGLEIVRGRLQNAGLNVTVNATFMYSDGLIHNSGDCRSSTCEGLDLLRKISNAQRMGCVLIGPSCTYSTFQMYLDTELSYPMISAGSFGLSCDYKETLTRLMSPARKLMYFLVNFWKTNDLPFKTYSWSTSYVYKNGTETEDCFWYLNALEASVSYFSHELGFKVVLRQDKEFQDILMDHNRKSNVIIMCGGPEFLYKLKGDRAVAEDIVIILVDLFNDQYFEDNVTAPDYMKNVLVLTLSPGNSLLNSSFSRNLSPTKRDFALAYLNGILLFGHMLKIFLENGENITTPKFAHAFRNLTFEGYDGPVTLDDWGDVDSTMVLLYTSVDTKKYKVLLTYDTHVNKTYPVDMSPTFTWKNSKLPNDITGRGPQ

B1: MS20 mouse monoclonal antibody (IgG2ak) (antibody, V domains shown)
VH: EVQLEESGPELVKPGASVKMSCKASGYTFTDYVISWVKQRTGQGLEWIGVTYPGSGNTYYGERFKGKATLTVDKMSNTAYMQLSSLTSEDSAVYFCTRNYGSFYALDYWGQGTSVTVSS
VL: DILMTQSPATLSVTPGDRVSLSCRASQSIRDYLHWYQHRSHESPRLLIKYASQSISGIPSRFSGSGSGSDFTLTINSVEPEDVGVYYCQNGHSFPTFGGGTKLEIK
For the molecule B1, the binding result is listed as “binds”.

B2: MS7 mouse monoclonal antibody (IgG1k) (antibody, V domains shown)
VH: EVMLVESGGGLVKPGGSLKLSCAASGFTFSTYAMSWVRQTPEKRLEWVATITSGGSYTYYPDSVKGRFTISRDNAKNILYLQMSSLRSEDTAMYYCTRLRQIGLRGFSDYWGQGTTLTVSS
VL: DILMTQSPSSMYASLGERVTITCKASHDIKSYLSWYQQKPWRSPKTLIYYTTALADGVPSRFSGSGSGQDYSLTISSLESDDTATYYCLQHGESPYTFGGGTKLEIK
Turning to B2, the binding result is given as “binds”.
